Source: article doi:10.1101/2023.06.06.543845

Biological target: Mycobacterium thermoresistibile NrdI (Mycobacterium thermoresistibile)
Experiment: cryo-EM structure

Mycobacterium thermoresistibile NrdF2 (enzyme)
stoichiometry N (NrdF2 per NrdI): 2
